{
  "source": "patent US20210238260A1",
  "about": "(published 2021)",
  "key": {"[1]": {"target": "T1, Factor VIIIa (recombinant FVIII, Kogenate FS, activated with alpha-thrombin) (UniProt P00451 20-2351)", "T1 construct": "also called FVIIIa", "T1 sequence (looked up)": "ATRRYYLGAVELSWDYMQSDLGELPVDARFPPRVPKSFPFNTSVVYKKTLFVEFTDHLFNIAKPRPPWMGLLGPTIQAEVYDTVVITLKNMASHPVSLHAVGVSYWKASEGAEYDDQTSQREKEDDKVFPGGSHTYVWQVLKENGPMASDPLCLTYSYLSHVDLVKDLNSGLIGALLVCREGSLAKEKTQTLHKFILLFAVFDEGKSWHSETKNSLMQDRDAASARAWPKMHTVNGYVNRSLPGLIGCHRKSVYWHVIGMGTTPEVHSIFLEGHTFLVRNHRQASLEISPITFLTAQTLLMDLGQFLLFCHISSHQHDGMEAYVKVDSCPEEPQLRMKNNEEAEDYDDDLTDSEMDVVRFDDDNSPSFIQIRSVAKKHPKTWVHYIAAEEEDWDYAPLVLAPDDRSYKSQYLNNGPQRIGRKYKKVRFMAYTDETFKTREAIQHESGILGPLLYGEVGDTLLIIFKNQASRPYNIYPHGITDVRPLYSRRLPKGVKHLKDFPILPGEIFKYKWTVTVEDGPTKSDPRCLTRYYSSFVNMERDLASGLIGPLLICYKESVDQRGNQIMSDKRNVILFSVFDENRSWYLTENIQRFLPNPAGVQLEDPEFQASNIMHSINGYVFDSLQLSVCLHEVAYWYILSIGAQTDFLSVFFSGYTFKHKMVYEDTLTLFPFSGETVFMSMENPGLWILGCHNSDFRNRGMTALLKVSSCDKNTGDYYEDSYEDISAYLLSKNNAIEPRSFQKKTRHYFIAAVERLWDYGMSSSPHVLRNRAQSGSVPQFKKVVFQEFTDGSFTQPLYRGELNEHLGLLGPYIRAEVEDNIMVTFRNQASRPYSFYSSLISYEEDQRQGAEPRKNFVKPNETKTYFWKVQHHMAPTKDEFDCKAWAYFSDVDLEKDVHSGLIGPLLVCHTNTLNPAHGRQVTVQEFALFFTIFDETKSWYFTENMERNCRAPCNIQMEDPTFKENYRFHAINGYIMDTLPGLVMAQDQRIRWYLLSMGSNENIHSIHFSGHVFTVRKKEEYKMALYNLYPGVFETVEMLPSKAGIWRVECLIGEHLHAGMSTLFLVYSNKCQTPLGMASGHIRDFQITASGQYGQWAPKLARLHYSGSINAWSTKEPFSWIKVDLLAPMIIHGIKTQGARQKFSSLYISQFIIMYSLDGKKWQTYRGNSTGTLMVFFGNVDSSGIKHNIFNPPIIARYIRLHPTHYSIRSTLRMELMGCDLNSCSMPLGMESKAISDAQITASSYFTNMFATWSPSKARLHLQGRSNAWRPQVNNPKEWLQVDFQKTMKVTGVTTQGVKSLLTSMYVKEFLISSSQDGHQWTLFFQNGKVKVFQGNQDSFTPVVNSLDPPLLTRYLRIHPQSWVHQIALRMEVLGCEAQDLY", "test": "ratio of KD-app of wild-type FIXa (Catalyst Biosciences WT, SEQ ID NO:3) to that of the variant, same Xase assay"}, "[2]": {"target": "T1, Factor VIIIa (recombinant FVIII, …)", "test": "functional cofactor affinity KD-app: fluorogenic FX activation (Xase) assay, FVIIIa titrated, PC/PS vesicles, saturating FX"}},
  "data": [
    {"binder": "FIXa-K228N/K247N/N249S/R318Y/R338E/T343R/E410N (enzyme, also called K63N/K82N/N84S/R150Y/R170E/T175R/E240N (chymotrypsin numbering)) chain 1: YNSGKLEEFVQGNLERECMEEKCSFEEAREVFENTERTTEFWKQYVDGDQCESNPCLNGGSCKDDINSYECWCPFGFEGKNCELDVTCNIKNGRCEQFCKNSADNKVVCSCTEGYRLAENQKSCEPAVPFPCGRVSVSQTSKLTR chain 2: VVGGEDAKPGQFPWQVVLNGKVDAFCGGSIVNEKWIVTAAHCVETGVNITVVAGEHNIEETEHTEQNRSVIRIIPHHNYNAAINKYNHDIALLELDEPLVLNSYVTPICIADKEYTNIFLKFGSGYVSGWGRVFHKGYSALVLQYLRVPLVDRATCLESTKFRIYNNMFCAGFHEGGRDSCQGDSGGPHVTEVEGTSFLTGIISWGEECAMKGKYGIYTKVSRYVNWIKNKTKLT", "values": [
      {"measurement": "KD-WT/KD-mut", "setting": "[1]", "value": 12.2},
      {"measurement": "Kd", "setting": "[2]", "value": 7.8, "unit": "nM"}
    ]},
    {"binder": "FIXa-Y155F/K247N/N249S/R318Y/R338E/T343R/R403E/E410N (enzyme) chain 1: YNSGKLEEFVQGNLERECMEEKCSFEEAREVFENTERTTEFWKQYVDGDQCESNPCLNGGSCKDDINSYECWCPFGFEGKNCELDVTCNIKNGRCEQFCKNSADNKVVCSCTEGYRLAENQKSCEPAVPFPCGRVSVSQTSKLTR chain 2: VVGGEDAKPGQFPWQVVLNGKVDAFCGGSIVNEKWIVTAAHCVETGVKITVVAGEHNIEETEHTEQNRSVIRIIPHHNYNAAINKYNHDIALLELDEPLVLNSYVTPICIADKEYTNIFLKFGSGYVSGWGRVFHKGYSALVLQYLRVPLVDRATCLESTKFRIYNNMFCAGFHEGGRDSCQGDSGGPHVTEVEGTSFLTGIISWGEECAMKGKYGIYTKVSEYVNWIKNKTKLT", "values": [
      {"measurement": "KD-WT/KD-mut", "setting": "[1]", "value": 6.3},
      {"measurement": "Kd", "setting": "[2]", "value": 15.3, "unit": "nM"}
    ]},
    {"binder": "FIXa-Y155F/K247N/N249S/R338E/T343R (enzyme) chain 1: YNSGKLEEFVQGNLERECMEEKCSFEEAREVFENTERTTEFWKQYVDGDQCESNPCLNGGSCKDDINSYECWCPFGFEGKNCELDVTCNIKNGRCEQFCKNSADNKVVCSCTEGYRLAENQKSCEPAVPFPCGRVSVSQTSKLTR chain 2: VVGGEDAKPGQFPWQVVLNGKVDAFCGGSIVNEKWIVTAAHCVETGVKITVVAGEHNIEETEHTEQNRSVIRIIPHHNYNAAINKYNHDIALLELDEPLVLNSYVTPICIADKEYTNIFLKFGSGYVSGWGRVFHKGRSALVLQYLRVPLVDRATCLESTKFRIYNNMFCAGFHEGGRDSCQGDSGGPHVTEVEGTSFLTGIISWGEECAMKGKYGIYTKVSRYVNWIKEKTKLT", "values": [
      {"measurement": "KD-WT/KD-mut", "setting": "[1]", "value": 6.2},
      {"measurement": "Kd", "setting": "[2]", "value": 15.4, "unit": "nM"}
    ]},
    {"binder": "FIXa-Y155F/K247N/N249S/R318Y/R338E/T343R/E410N (enzyme) chain 1: YNSGKLEEFVQGNLERECMEEKCSFEEAREVFENTERTTEFWKQYVDGDQCESNPCLNGGSCKDDINSYECWCPFGFEGKNCELDVTCNIKNGRCEQFCKNSADNKVVCSCTEGYRLAENQKSCEPAVPFPCGRVSVSQTSKLTR chain 2: VVGGEDAKPGQFPWQVVLNGKVDAFCGGSIVNEKWIVTAAHCVETGVKITVVAGEHNIEETEHTEQNRSVIRIIPHHNYNAAINKYNHDIALLELDEPLVLNSYVTPICIADKEYTNIFLKFGSGYVSGWGRVFHKGYSALVLQYLRVPLVDRATCLESTKFRIYNNMFCAGFHEGGRDSCQGDSGGPHVTEVEGTSFLTGIISWGEECAMKGKYGIYTKVSRYVNWIKNKTKLT", "values": [
      {"measurement": "KD-WT/KD-mut", "setting": "[1]", "value": 6.9},
      {"measurement": "Kd", "setting": "[2]", "value": 13.9, "unit": "nM"}
    ]},
    {"binder": "FIXa-K228N/R318Y/R338E/T343R/R403E/E410N (enzyme, also called K63N/R150Y/R170E/T175R/R233E/E240N (chymotrypsin numbering)) chain 1: YNSGKLEEFVQGNLERECMEEKCSFEEAREVFENTERTTEFWKQYVDGDQCESNPCLNGGSCKDDINSYECWCPFGFEGKNCELDVTCNIKNGRCEQFCKNSADNKVVCSCTEGYRLAENQKSCEPAVPFPCGRVSVSQTSKLTR chain 2: VVGGEDAKPGQFPWQVVLNGKVDAFCGGSIVNEKWIVTAAHCVETGVNITVVAGEHNIEETEHTEQKRNVIRIIPHHNYNAAINKYNHDIALLELDEPLVLNSYVTPICIADKEYTNIFLKFGSGYVSGWGRVFHKGYSALVLQYLRVPLVDRATCLESTKFRIYNNMFCAGFHEGGRDSCQGDSGGPHVTEVEGTSFLTGIISWGEECAMKGKYGIYTKVSEYVNWIKNKTKLT", "values": [
      {"measurement": "KD-WT/KD-mut", "setting": "[1]", "value": 5.4},
      {"measurement": "Kd", "setting": "[2]", "value": 17.5, "unit": "nM"}
    ]},
    {"binder": "FIXa-Y155F/K247N/N249S/R338E/E410N (enzyme) chain 1: YNSGKLEEFVQGNLERECMEEKCSFEEAREVFENTERTTEFWKQYVDGDQCESNPCLNGGSCKDDINSYECWCPFGFEGKNCELDVTCNIKNGRCEQFCKNSADNKVVCSCTEGYRLAENQKSCEPAVPFPCGRVSVSQTSKLTR chain 2: VVGGEDAKPGQFPWQVVLNGKVDAFCGGSIVNEKWIVTAAHCVETGVKITVVAGEHNIEETEHTEQNRSVIRIIPHHNYNAAINKYNHDIALLELDEPLVLNSYVTPICIADKEYTNIFLKFGSGYVSGWGRVFHKGRSALVLQYLRVPLVDRATCLESTKFTIYNNMFCAGFHEGGRDSCQGDSGGPHVTEVEGTSFLTGIISWGEECAMKGKYGIYTKVSRYVNWIKNKTKLT", "values": [
      {"measurement": "KD-WT/KD-mut", "setting": "[1]", "value": 3.8},
      {"measurement": "Kd", "setting": "[2]", "value": 24.9, "unit": "nM"}
    ]},
    {"binder": "FIXa-R318Y/T343R/R403E/E410N (enzyme, also called R150Y/T175R/R233E/E240N (chymotrypsin numbering)) chain 1: YNSGKLEEFVQGNLERECMEEKCSFEEAREVFENTERTTEFWKQYVDGDQCESNPCLNGGSCKDDINSYECWCPFGFEGKNCELDVTCNIKNGRCEQFCKNSADNKVVCSCTEGYRLAENQKSCEPAVPFPCGRVSVSQTSKLTR chain 2: VVGGEDAKPGQFPWQVVLNGKVDAFCGGSIVNEKWIVTAAHCVETGVKITVVAGEHNIEETEHTEQKRNVIRIIPHHNYNAAINKYNHDIALLELDEPLVLNSYVTPICIADKEYTNIFLKFGSGYVSGWGRVFHKGYSALVLQYLRVPLVDRATCLRSTKFRIYNNMFCAGFHEGGRDSCQGDSGGPHVTEVEGTSFLTGIISWGEECAMKGKYGIYTKVSEYVNWIKNKTKLT", "values": [
      {"measurement": "KD-WT/KD-mut", "setting": "[1]", "value": 1.1},
      {"measurement": "Kd", "setting": "[2]", "value": 84.1, "unit": "nM"}
    ]},
    {"binder": "FIXa-Y155F/R318Y/T343R/E410N (enzyme) chain 1: YNSGKLEEFVQGNLERECMEEKCSFEEAREVFENTERTTEFWKQYVDGDQCESNPCLNGGSCKDDINSYECWCPFGFEGKNCELDVTCNIKNGRCEQFCKNSADNKVVCSCTEGYRLAENQKSCEPAVPFPCGRVSVSQTSKLTR chain 2: VVGGEDAKPGQFPWQVVLNGKVDAFCGGSIVNEKWIVTAAHCVETGVKITVVAGEHNIEETEHTEQKRNVIRIIPHHNYNAAINKYNHDIALLELDEPLVLNSYVTPICIADKEYTNIFLKFGSGYVSGWGRVFHKGYSALVLQYLRVPLVDRATCLRSTKFRIYNNMFCAGFHEGGRDSCQGDSGGPHVTEVEGTSFLTGIISWGEECAMKGKYGIYTKVSRYVNWIKNKTKLT", "values": [
      {"measurement": "KD-WT/KD-mut", "setting": "[1]", "value": 2.5},
      {"measurement": "Kd", "setting": "[2]", "value": 38, "unit": "nM"}
    ]},
    {"binder": "FIXa-R318Y/R338E/T343R/R403E/E410S (enzyme, also called R150Y/R170E/T175R/R233E/E240S (chymotrypsin numbering)) chain 1: YNSGKLEEFVQGNLERECMEEKCSFEEAREVFENTERTTEFWKQYVDGDQCESNPCLNGGSCKDDINSYECWCPFGFEGKNCELDVTCNIKNGRCEQFCKNSADNKVVCSCTEGYRLAENQKSCEPAVPFPCGRVSVSQTSKLTR chain 2: VVGGEDAKPGQFPWQVVLNGKVDAFCGGSIVNEKWIVTAAHCVETGVKITVVAGEHNIEETEHTEQKRNVIRIIPHHNYNAAINKYNHDIALLELDEPLVLNSYVTPICIADKEYTNIFLKFGSGYVSGWGRVFHKGYSALVLQYLRVPLVDRATCLESTKFRIYNNMFCAGFHEGGRDSCQGDSGGPHVTEVEGTSFLTGIISWGEECAMKGKYGIYTKVSEYVNWIKSKTKLT", "values": [
      {"measurement": "KD-WT/KD-mut", "setting": "[1]", "value": 4.1},
      {"measurement": "Kd", "setting": "[2]", "value": 23.2, "unit": "nM"}
    ]},
    {"binder": "FIXa-K247N/N249S/R338E/T343R/E410N (enzyme, also called K82N/N84S/R170E/T175R/E240N (chymotrypsin numbering)) chain 1: YNSGKLEEFVQGNLERECMEEKCSFEEAREVFENTERTTEFWKQYVDGDQCESNPCLNGGSCKDDINSYECWCPFGFEGKNCELDVTCNIKNGRCEQFCKNSADNKVVCSCTEGYRLAENQKSCEPAVPFPCGRVSVSQTSKLTR chain 2: VVGGEDAKPGQFPWQVVLNGKVDAFCGGSIVNEKWIVTAAHCVETGVKITVVAGEHNIEETEHTEQNRSVIRIIPHHNYNAAINKYNHDIALLELDEPLVLNSYVTPICIADKEYTNIFLKFGSGYVSGWGRVFHKGRSALVLQYLRVPLVDRATCLESTKFRIYNNMFCAGFHEGGRDSCQGDSGGPHVTEVEGTSFLTGIISWGEECAMKGKYGIYTKVSRYVNWIKNKTKLT", "values": [
      {"measurement": "KD-WT/KD-mut", "setting": "[1]", "value": 6.8},
      {"measurement": "Kd", "setting": "[2]", "value": 14, "unit": "nM"}
    ]}
  ]
}
